According to US5821046A, “RNA oligonucleotides that bind HIV tat protein” (RiboTargets Holdings PLC, priority 1990, dated 1998):

Key:
HIV-1 Tat [1] = target: T1, HIV-1 Tat (Human immunodeficiency virus 1, UniProt P04608 P04608:1-86); assay: competition; D1/2; 18+15 duplex probe; 59-mer 18 nM; settings: duplex with UUU bulge, no apical loop
HIV-1 Tat [2] = target: T1, HIV-1 Tat; assay: filter; no complex in EMSA; settings: stem-loop
HIV-1 Tat [3] = target: T1, HIV-1 Tat; assay: filter; UCU bulge indistinguishable from UUU; settings: stem-loop with bulge
HIV-1 Tat [4] = target: T1, HIV-1 Tat; assay: filter; D1/2 680 nM; no complex in EMSA; settings: stem-loop, upper stem disrupted
HIV-1 Tat [5] = target: T1, HIV-1 Tat; assay: filter; D1/2 66 nM; complex in EMSA; settings: stem-loop with bulge
HIV-1 Tat [6] = target: T1, HIV-1 Tat; assay: filter; D1/2 76 nM; compensatory mutation restores binding; settings: stem-loop with bulge
HIV-1 Tat [7] = target: T1, HIV-1 Tat; assay: filter; D1/2 160 nM; about 2.5-fold lower affinity; complex in EMSA; settings: stem-loop with 2-nt bulge
Rev = settings: references 33, 34; read-out: Kd of Rev-RRE complex; cited from earlier work
HIV-1 Tat [8] = target: T1, HIV-1 Tat; assay: filter; D1/2 420 nM in table (290 nM in text); no complex in EMSA; settings: stem-loop without bulge
HIV-1 Tat [9] = target: T1, HIV-1 Tat; assay: competition; D1/2 vs 10 nM 59-mer probe (59-mer 40 nM); 60 nM vs 29-mer probe; settings: hairpin with U-rich bulge and loop
HIV-1 Tat [10] = target: T1, HIV-1 Tat; assay: competition; D1/2; unmodified 18+15 duplex 65 nM; 59-mer 18 nM; settings: duplex with bulge

B1: 18-mer + 15-mer TAR duplex (dsRNA)
RNA 1: AGCCAGAUUUGAGCAGCU
RNA 2: AGCUGCUCUCUGGCU
In the case of B1, the IC50 (HIV-1 Tat [1]) is reported as 65 nM.

B2: Antisense TAR (ssRNA)
RNA: GGGUUCCCUAGUUAGCCAGAGAGCUCCCAGGCUCAAAUCUGGUCUAACCAGAGAGACCC
With B2 the Kd (HIV-1 Tat [2]) was > 140 nM.

B3: HIV-1 TAR RNA (UCU bulge) (ssRNA)
RNA: GGGUCUCUCUGGUUAGACCAGAUCUGAGCCUGGGAGCUCUCUGGCUAACUAGGGAACCC
modifications: [24]
For B3, the Kd (HIV-1 Tat [3]) was 12 nM.

B4: TAR G28 to C28 (ssRNA)
RNA: GGGUCUCUCUGGUUAGACCAGAUUUGACCCUGGGAGCUCUCUGGCUAACUAGGGAACCC
In the case of B4, the Kd (HIV-1 Tat [4]) is reported as > 100 nM.

B5: TAR G to U (loop) (ssRNA)
RNA: GGGUCUCUCUGGUUAGACCAGAUUUGAGCCUUUUAGCUCUCUGGCUAACUAGGGAACCC
In the case of B5, the Kd (HIV-1 Tat [5]) is reported as 25 nM.

B6: TAR G28 to C28; C37 to G37 (ssRNA)
RNA: GGGUCUCUCUGGUUAGACCAGAUUUGACCCUGGGAGGUCUCUGGCUAACUAGGGAACCC
In the case of B6, the Kd (HIV-1 Tat [6]) is reported as 24 nM.

B7: HIV-2 TAR RNA first stem-loop (ssRNA)
RNA: CUGCGGAGAGGCUGGCAGAUUGAGCCCUGGGAGGUUCUCUCCAGCACUAGCAG
With B7 the Kd (HIV-1 Tat [7]) was 30 nM.

B8: RRE: rev-responsive element, 243-nucleotide long sequence within the env gene (nucleic acid)
chain: CAGUGGGAAUAGGAGCUUUGUUCCUUGGGUUCUUGGGAGCAGCAGGAAGCACUAUGGGCGCAGCGUCAAUGACGCUGACGGUACAGGCCAGACAAUUAUUGUCUGGUAUAGUGCAGCAGCAGAACAAUUUGCUGAGGGCUAUUGAGGCGCAACAGCAUCUGUUGCAACUCAAGUCUGGGGCAUCAAGCAGCUCCAGGCAAGAAUCCUGGCUGUGGAAAGAUACCUAAAGGAUCAACAGCUCCU
For B8, the Kd (Rev) is listed as 3 nM.

B9: TAR delta U (bulge) (ssRNA)
RNA: GGGUCUCUCUGGUUAGACCAGAGAGCCUGGGAGCUCUCUGGCUAACUAGGGAACCC
In the case of B9, the Kd (HIV-1 Tat [8]) is reported as > 70 nM.

B10: 29-mer top part of TAR (ssRNA)
RNA: GCCAGAUUUGAGCCUGGGAGCUCUCUGGC
With B10 the IC50 (HIV-1 Tat [9]) was 100 nM.

B11: 18+15 duplex 4-thioT-25 (dsRNA)
RNA 1: AGCCAGAUUTGAGCAGCU
RNA 2: AGCUGCUCUCUGGCU
modifications: 4-thio-2'-deoxythymidine at U25 (nt 10) [10 (strand 1, 4-thio-2'-deoxythymidine)]
Molecule B11 has an IC50 (HIV-1 Tat [10]) of 12 nM.
